{
  "source": "patent US20240254220A1",
  "about": "“COMBINED THERAPY USING ANTI-CD300C ANTIBODY” (CentricsBio, Inc., priority 2021, published 2024)",
  "key": {"[1]": {"tested_on": "colon cancer cell line (CT26) tumor", "experiment": "In vivo cancer growth inhibition, CT26 model, CL7 dose range", "parameters": "species or system BALB/c mice", "details": "1, 5, 10 or 25 mg/kg i.p. on D11, D14, D18, D21; 25 days", "procedure": "In order to identify anticancer effects of the anti-CD300c monoclonal antibody CL7 under in vivo conditions, a colon cancer cell line (CT26) at 2×10^5 cells was transplanted by subcutaneous injection into 8-week-old BALB/c mice to prepare syngeneic mouse tumor models. Animal breeding and experiments were all conducted in a SPF facility. On day 11 (D11) after the transplantation of the colon cancer cell line, the mice with a tumor size of 50 mm^3 to 100 mm^3 were administered the anti-CD300c monoclonal antibody 1 mg/kg, 5 mg/kg, 10 mg/kg, or 25 mg/kg, respectively, and for a control group, the mice were administered the same amount of phosphate buffered saline (PBS). Specifically, the mice were intraperitoneally injected with each dosage twice a week for two weeks (a total of 4 times on D11, D14, D18, and D21). The tumor volume was measured for 25 days."}, "[2]": {"tested_on": "A549 (human lung cancer cell line)", "experiment": "A549 cancer cell growth inhibition (CCK-8), CL7 and Imfinzi", "assay_type": "cell-based", "details": "A549, 0% FBS, 10 μg/mL each, 5 days", "from_the_text": "In order to identify cancer cell growth inhibitory effects by combined administration of the anti-CD300c monoclonal antibody CL7 and an immunotherapeutic agent, the cancer cell growth inhibitory effects were compared using A549 (human lung cancer cell line) and MDA-MB-231 (human breast cancer cell line). Specifically, the cells were dispensed into a 96-well plate at 2×10^4 cells (A549) or 3×10^4 cells (MDA-MB-231) under 0% fetal bovine serum (FBS) conditions, and at 6×10^3 cells (A549) or 1×10^4 cells (MDA-MB-231) under 0.1% fetal bovine serum conditions. Subsequently, the cells were treated with the anti-CD300c monoclonal antibody and Imfinzi at 10 μg/mL alone or in combination, followed by incubation for 5 days. For a control group, the cells were treated with the same amount of phosphate buffer solution (PBS). Then, the cells were treated with CCK-8 (DOJINDO), and the absorbance was measured at OD 450 nm. The results are shown in FIG. 33 (A549) and FIG. 34 (MDA-MB-231)."}, "THP-1": {"tested_on": "THP-1", "experiment": "M1 macrophage marker ELISA in THP-1", "assay_type": "cell-based, human", "details": "THP-1, 10 μg/mL, 48 hours, antibody alone", "procedure": "In order to identify whether the induction of differentiation of monocytes into M1 macrophages increases when the cells are treated with the anti-CD300c monoclonal antibody CL7 produced in Example 1 and an immunotherapeutic agent, such as Imfinzi as an anti-PD-L1 antibody, Opdivo as an anti-PD-1 antibody, KEYTRUDA as an anti-PD-1 antibody, an anti-CD47 antibody (αCD47), and an anti-CTLA-4 antibody, alone in combination, THP-1 was dispensed into a 96-well plate at 1.5×10^4 cells/well and treated with the anti-CD300c monoclonal antibody and the immunotherapeutic agent, respectively, at 10 μg/mL alone or in combination, followed by incubation for 48 hours, and the production levels of tumor necrosis factor-α (TNF-α), IL-1b, and IL-8, which are differentiation markers of M1 macrophages, were measured using an ELISA kit (Human TNF-α Quantikine kit, R&D Systems)."}, "[3]": {"tested_on": "CD300a antigen and seven B7 family protein antigens (PD-L1, ICOS Ligand, CD276, B7-H4, CD80, CD86, CD273)", "experiment": "Binding specificity ELISA against B7 family proteins", "details": "antigens coated at 8 μg/mL", "procedure": "In order to identify that the anti-CD300c monoclonal antibody CL7 specifically binds only to CD300c without binding to other B7 family proteins, binding ELISA was performed. More specifically, each of CD300c antigen, CD300a antigen, or seven B7 family protein antigens (PD-L1 [B7-H1] (Sino Biological), ICOS Ligand[B7-H2] (Sino Biological), CD276[B7-H3] (Sino Biological), B7-H4 (Sino Biological), CD80[B7-1] (Sino Biological), CD86[B7-2] (Sino Biological), CD273[PD-L2] (Sino Biological)) in a coating buffer (0.1 M sodium carbonate, pH 9.0) was coated on an ELISA plate at a concentration of 8 μg/mL per well, and then bound to the plate by incubation at 2° C. to 8° C. overnight. The unbound antigen was removed by washing with PBST three times, and then […] of blocking buffer (5% skim milk in PBST) was added to each well. Subsequently, blocking was performed at room temperature for 1 hour, followed by washing again with PBST. Thereafter, CL7 was diluted in quadruplicate with PBS, incubated with the antigen at room temperature for 1 hour for antigen binding 1 hour later, and washed three times with PBST. […] Then, 2 N sulfuric acid solution was added to terminate the development reaction, and the absorbance was measured at 450 nm to identify the antibody specifically binding to the CD300c antigen."}, "[4]": {"tested_on": "colon cancer cell line (CT26) tumor", "experiment": "Tumor volume, complete remission and long-term survival, CT26 model, combined administration", "assay_type": "in vivo, BALB/c mice", "details": "CL7 25 mg/kg, anti-PD-1 10 mg/kg, anti-CTLA-4 4 mg/kg i.p. D11, D14, D18"}},
  "data": [
    {"molecule": "CL7: anti-CD300c monoclonal antibody, VH3VL1 phage library, VH SEQ ID 327, VL SEQ ID 328 (antibody, V domains shown, CL7 Heavy Chain Variable Region; CL7 Light Chain Variable Region) VH: EVQLLESGGGLVQPGGSLRLSCAASGFTFSRYAMSWVRQAPGKGLEWVSAISGSGGSTYYADSVKGRFTISRDNSKNTLYLQMNSLRAEDTAVYYCARSSQGIFDIWGQGTLVTVSS VL: QSVLTQPPSASGTPGQRVTISCSGNNIGTRRVHWYQQLPDTAPKLLIYSKNNRPSGVPDRFSGSKSGTSASLAISGLRSEDEADYYCAAWDDSLSGPVFGGGTKLTVL", "values": [
      {"measurement": "growth of CT26 colon cancer (tumor volume)", "setting": "[1]", "result": "delayed the growth of CT26 colon cancer in a dose-dependent manner"},
      {"measurement": "cell growth inhibitory effect compared with control group", "setting": "[2]", "result": 17, "unit": "%"},
      {"measurement": "production level of IL-8", "setting": "THP-1", "result": "significantly increased"},
      {"measurement": "production levels of all three differentiation markers (TNF-α, IL-1b, IL-8)", "setting": "THP-1", "result": "increased"},
      {"measurement": "binding specificity versus other similar proteins", "setting": "[3]", "result": "specifically recognized only CD300c without binding to other similar proteins"},
      {"measurement": "growth of cancer (tumor volume)", "setting": "[4]", "result": "inhibited"}
    ]}
  ]
}
